The experiment deals with T1, mutated-truncated DsbC (mtDsbC) tagged SARS-CoV-2 Receptor Binding Domain (RBD) (Severe acute respiratory syndrome …, UniProt P0DTC2, biotin (biotinylated, site not stated)).
T1 construct: also called mtDsbC-SARS-CoV-2 wild type; SARS-CoV-2 RBD
Kind of experiment: BLI; biotinylated antigen (5 µg/mL) immobilised on Streptavidin biosensors; five concentrations of Fab or FabH3 (3-243 nM); Octet RED384, 30 °C, 1000 rpm, 1X PBS Kinetics Buffer; global fit, 1:1 interaction model. To be noted: both partners purified. For orientation: In BLI a coated tip is dipped into the sample, and binding shifts an interference pattern.

This note sets out measurements from article PMC10469194 (Scientific Reports, 2023).

B1: REGN10987-based FabH3 (GS-G4 linker) (other)
VH: QVQLVESGGGVVQPGRSLRLSCAASGFTFSNYAMYWVRQAPGKGLEWVAVISYDGSNKYYADSVKGRFTISRDNSKNTLYLQMNSLRTEDTAVYYCASGSDYGDYLLVYWGQGTLVTVSS
VL: QSALTQPASVSGSPGQSITISCTGTSSDVGGYNYVSWYQQHPGKAPKLMIYDVSKRPSGVSNRFSGSKSGNTASLTISGLQSEDEADYYCNSLTSISTWVFGGGTKLTVL
notes: VH domain of REGN10987, as the VH of the heavy chain of m1; flexible glycine-serine linker, printed only as the formula 'GS-G4' (G: glycine, S: serine); spelled out from that formula; IgG1 heavy chain constant 3 (CH3) domain; VL domain of REGN10987, as the VL of the light chain of m1; E356 is 239 and D399 is 282 in P01857; also called REGN10987 FabH3; FabH3 format; copies: 1 + 1
For B1, the Kd was 20 ± 2.6 nM.

B2: REGN10987 wild type Fab (Fab, V domains shown)
VH: QVQLVESGGGVVQPGRSLRLSCAASGFTFSNYAMYWVRQAPGKGLEWVAVISYDGSNKYYADSVKGRFTISRDNSKNTLYLQMNSLRTEDTAVYYCASGSDYGDYLLVYWGQGTLVTVSS
VL: QSALTQPASVSGSPGQSITISCTGTSSDVGGYNYVSWYQQHPGKAPKLMIYDVSKRPSGVSNRFSGSKSGNTASLTISGLQSEDEADYYCNSLTSISTWVFGGGTKLTVL
notes: Fab heavy chain (VH-CH1) of REGN10987; Fab light chain (VL-CL, lambda) of REGN10987; Heavy and light chain are covalently linked (one mass of 47,892 Da by ESI-MS); also called REGN10987 Fab; REGN10987-Fab
With B2, the Kd came out at 43 ± 4.4 nM.

A word on the Kd: it is the free concentration of one partner at which half of the binding sites on the other are occupied at equilibrium, for simple one-to-one binding.
